Data from patent publication US20200055939A1 (Genentech, published 2020).
Substitutions are numbered along the chain they refer to. Where two headings read alike, the source gives them in different places. Values belong to the binder of their own block, whether it stands above or below them.

How the values were obtained:
[1] = target: T1, MICA.008.a3.R202-S297.R202N mIgG2a.Glyco11 (human; mouse, UniProt Q29983 203-297, engineered N-linked glycosylation site R202N); assay: ELISA, coated variant;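 also: ELISA with plates coated at 2 ug/ml with MICA*008 alpha 3 glycosylation variants as murine IgG2a Fc fusions, antibody binding detected by HRP anti-human IgG Fc and TMB absorbance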
T1 construct: not shown: murine IgG2a Fc
T1 chain: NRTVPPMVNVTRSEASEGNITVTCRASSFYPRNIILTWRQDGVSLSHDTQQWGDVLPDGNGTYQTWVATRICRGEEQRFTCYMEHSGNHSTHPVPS

[2] = target: T2, MICA.008.a3.T204-S297.E215N.mIgG2a.Glyco12 (human; mouse, UniProt Q29983 204-297, engineered N-linked glycosylation site E215N); assay: ELISA, coated variant;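 also: ELISA with plates coated at 2 ug/ml with MICA*008 alpha 3 glycosylation variants as murine IgG2a Fc fusions, antibody binding detected by HRP anti-human IgG Fc and TMB absorbance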
T2 construct: not shown: murine IgG2a Fc
T2 chain: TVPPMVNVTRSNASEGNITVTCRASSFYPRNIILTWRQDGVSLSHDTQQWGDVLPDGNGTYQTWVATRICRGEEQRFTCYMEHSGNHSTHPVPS

[3] = target: T3, MICA.008.a3.T204-S297.C-terminal insert of N298.G299.S300.mIgG2a.Glyco17 (human; mouse, UniProt Q29983 204-297, engineered N-linked glycosylation site at inserted N298); assay: ELISA, coated variant;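 also: ELISA with plates coated at 2 ug/ml with MICA*008 alpha 3 glycosylation variants as murine IgG2a Fc fusions, antibody binding detected by HRP anti-human IgG Fc and TMB absorbance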
T3 construct: not shown: murine IgG2a Fc
T3 chain: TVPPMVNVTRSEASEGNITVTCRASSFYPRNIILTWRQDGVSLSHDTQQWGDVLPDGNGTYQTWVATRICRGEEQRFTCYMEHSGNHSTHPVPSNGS

[4] = target: T4, MICA.008.a3.T204-S297.I236T.mIgG2a.Glyco13 (human; mouse, UniProt Q29983 204-297, engineered N-linked glycosylation site created by I236T); assay: ELISA, coated variant;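 also: ELISA with plates coated at 2 ug/ml with MICA*008 alpha 3 glycosylation variants as murine IgG2a Fc fusions, antibody binding detected by HRP anti-human IgG Fc and TMB absorbance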
T4 construct: not shown: murine IgG2a Fc
T4 chain: T2 chain with N12E, I33T

[5] = target: T5, MICA.008.a3.T204-S297.H248N.mIgG2a.Glyco15 (human; mouse, UniProt Q29983 204-297, engineered N-linked glycosylation site H248N); assay: ELISA, coated variant
T5 construct: not shown: murine IgG2a Fc
T5 chain: T2 chain with N12E, H45N

[6] = target: T6, MICB*005 on HCC1534 cells (human, UniProt Q29980 23-383); assay: cell-based or functional assay
T6 sequence (looked up): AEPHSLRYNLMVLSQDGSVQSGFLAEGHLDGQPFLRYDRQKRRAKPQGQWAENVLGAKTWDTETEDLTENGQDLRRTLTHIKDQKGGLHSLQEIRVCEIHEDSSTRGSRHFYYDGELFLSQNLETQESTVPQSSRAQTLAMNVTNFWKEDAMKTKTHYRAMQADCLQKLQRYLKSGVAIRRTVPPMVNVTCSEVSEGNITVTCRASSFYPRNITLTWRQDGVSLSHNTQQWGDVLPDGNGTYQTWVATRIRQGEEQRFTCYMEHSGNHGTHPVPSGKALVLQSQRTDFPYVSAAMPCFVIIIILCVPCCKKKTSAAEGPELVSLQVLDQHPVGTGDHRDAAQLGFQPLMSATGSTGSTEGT

[7] = target: T7, MICA*004 on HCC1534 cells (human, UniProt Q29983 24-383); assay: cell-based or functional assay
[8] = target: T8, MICA*008 on MEL-JUSO cells (human, UniProt Q29983 24-317); assay: cell-based or functional assay
T8 chain: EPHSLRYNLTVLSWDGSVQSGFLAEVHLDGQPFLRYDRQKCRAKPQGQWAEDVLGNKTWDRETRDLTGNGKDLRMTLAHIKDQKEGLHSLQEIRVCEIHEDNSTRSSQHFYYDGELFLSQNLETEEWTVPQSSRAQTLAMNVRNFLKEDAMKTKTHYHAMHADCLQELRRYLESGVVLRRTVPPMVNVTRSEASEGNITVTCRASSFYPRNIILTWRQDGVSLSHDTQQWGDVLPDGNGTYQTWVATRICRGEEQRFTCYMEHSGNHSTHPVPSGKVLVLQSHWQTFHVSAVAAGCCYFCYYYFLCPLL

[9] = target: T9, MICA008.His (human MICA*008 alpha 3 domain, His tagged) (human); assay: SPR (Biacore), MICA*008 alpha-3 domain
T9 construct: Also used for FPOP (expressed in CHO); also called huMICA*008 alpha 3-his; MICA*008 a3
T9 chain: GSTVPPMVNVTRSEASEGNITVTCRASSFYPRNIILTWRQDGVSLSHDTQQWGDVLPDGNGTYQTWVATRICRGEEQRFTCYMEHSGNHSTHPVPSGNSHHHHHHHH

[10] = target: T9, MICA008.His (human MICA*008 alpha 3 …); assay: SPR, antibody captured;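 also: SPR with antibody held by surface-bound anti-Fc while His-tagged alpha three domains flow over, Kd derived by fitting a one-to-one binding model to sensograms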
[11] = target: T10, MICA002.His (human MICA*002 alpha 3 domain, His tagged) (human); assay: SPR, antibody captured;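 also: SPR with antibody held by surface-bound anti-Fc while His-tagged alpha three domains flow over, Kd derived by fitting a one-to-one binding model to sensograms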
T10 construct: also called huMICA*002 alpha 3-his
T10 chain: T9 chain with S28G, R32W, I35T, T37S, R73Q

[12] = target: T11, MICB005.His (human MICB*005 alpha 3 domain, His tagged) (human); assay: SPR, antibody captured;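 also: SPR with antibody held by surface-bound anti-Fc while His-tagged alpha three domains flow over, Kd derived by fitting a one-to-one binding model to sensograms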
T11 construct: also called huMICB*005 alpha 3-his
T11 chain: T9 chain with R12C, A15V, I35T, D48N, C72R, R73Q, S90G

[13] = target: T12, MICA004.His (human MICA*004 alpha 3 domain, His tagged) (human); assay: SPR, antibody captured;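 also: SPR with antibody held by surface-bound anti-Fc while His-tagged alpha three domains flow over, Kd derived by fitting a one-to-one binding model to sensograms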
T12 construct: also called huMICA*004 alpha 3-his
T12 chain: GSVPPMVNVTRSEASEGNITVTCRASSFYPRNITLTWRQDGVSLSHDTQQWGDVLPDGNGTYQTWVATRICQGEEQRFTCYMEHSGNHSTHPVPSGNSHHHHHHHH

[14] = target: T6, MICB*005 on HCC1534 cells; assay: cell-based or functional assay; remark: listed apart in the source
[15] = target: T7, MICA*004 on HCC1534 cells; assay: cell-based or functional assay; remark: listed apart in the source
[16] = target: MICA*002 on cells (PANC-1; B16-MICA002) (human, UniProt Q29983 24-383); assay: cell-based or functional assay
[17] = target: T8, MICA*008 on MEL-JUSO cells; assay: cell-based or functional assay

- binding result [1]: binds
- binding result [2]: binds
- binding result [3]: binds
- binding result [4]: binds
- binding result [5]: binds
- % max inhibition of shedding [7]: 70%
- EC50 of shedding inhibition [7]: 0.251 µg/mL
- % max inhibition of shedding [8]: 47.5%
- EC50 of shedding inhibition [8]: 0.163 µg/mL
- Kd [10]: 8.4 nM
- Kd [11]: 2.4 nM
- Kd [12]: 14.5 nM
- Kd [13]: 6.2 nM
B3: 6F8.7 (antibody, V domains shown)
VH: DVQLQGSGPGLVKPSQSLSLTCSVTGYSITNDYYWNWIRQFPGNKLEWMGFISFGGSNNYNPSLKNRISITRDTSKNQFFLKLSSVTTEDTATYYCARYDGRGAWFAYWAQGTLVTVSA
VL: DIQMTQSPASLSASVGETVTITCRASGNIHNYLAWYQQKQGKSPQLLVYDAITLADGVPSRFSGSGSGTQYSLKINSLQPEDFGNYYCQHFWSFPLTFGAGTKVEIK
notes: Mouse hybridoma antibody; constant regions differ by assay

- binding result [1]: binds
- binding result [2]: binds
- binding result [3]: binds
- binding result [4]: binds
- binding result [5]: binds
- % max inhibition of shedding [7]: 63%
- EC50 of shedding inhibition [7]: 0.185 µg/mL
- % max inhibition of shedding [8]: 26%
- Kd [10]: 10 nM
- Kd [11]: 3.5 nM
- Kd [12]: 20 nM
- Kd [13]: 8.9 nM
B4: 7D4.6 (antibody, V domains shown)
VH: DVQLQESGPGLVKPSQSLSLTCTVTGYSITSDYAWNWIRQFPRNKLEWMGYINYSGTTNYNPSLKSRISITRDTSKNQFFLQLISVTTEDTATYYCSYYRYDGAWFPYWGQGTLVTVSA
VL: B3 VL with D50N, T53M, G64A, N85S
notes: as for B3

Continued, binder first:

B1: 32D2 (antibody, V domains shown)
VH: DVHLVESGGGLVQPGGSRKLSCAASGFTFNTFGMNWVRQAPEKGLEWVAYINSGSNTIYYADTVKGRFTISRDNPKNTLFLQMTSLRSEDTAMYYCTRWEPVTGGFSYWGQGTLVTVSA
VL: QIVLTQSPAFKSSSLGERVTMTCTASSSISSSYLHWYQQKPGSSPKLWIYTTSNLASGVPARFSGSGSGTSYSLTISTMEAEDAATYYCHQHHRSPFTFGSGTKVEIK
notes: as for B3
- binding result [1]: binds
- binding result [2]: binds
- binding result [3]: binds
- binding result [4]: binds
- binding result [5]: binds
- % max inhibition of shedding [6]: 54%
- EC50 of shedding inhibition [6]: 0.0781 µg/mL
- % max inhibition of shedding [7]: 76%
- EC50 of shedding inhibition [7]: 0.0592 µg/mL
- % max inhibition of shedding [8]: 71%
- EC50 of shedding inhibition [8]: 0.0303 µg/mL
- Kd [9]: 4 nM
- Kd [10]: 1.94 nM
- Kd [11]: 3.18 nM
- Kd [12]: 2.82 nM
- Kd [13]: 2.85 nM

B2: 3E11 (antibody, V domains shown)
VH: EIQLQQSGPELVKPGASVKVSCTASGYAFTKYNIYWVKQSHGKSLEWIGYIDPYTGGTISNQKFTGRATLTVDKSSSTAYLHLNSLTSEDSAVYYCARPGSYWYFGVWGAGTTVTVSS
VL: DILMTQTPLSLPVSLGDQASISCRSSQSIVYTNGNTNLEWYLQKPGQSPKLLIYKVSNRFSGVPDRFSGSGSGTDFTLKISRVEAEDLGVYYCFQASYVPFTFGSGTKVEIK
notes: as for B3
- binding result [1]: binds
- binding result [2]: binds
- binding result [3]: binds
- binding result [4]: binds
- binding result [5]: binds
- % max inhibition of shedding [7]: 55%
- EC50 of shedding inhibition [7]: 0.309 µg/mL
- % max inhibition of shedding [8]: 70%
- EC50 of shedding inhibition [8]: 0.265 µg/mL
- Kd [10]: 2.5 nM
- Kd [11]: 7.7 nM
- Kd [12]: 6.8 nM
- Kd [13]: 5 nM

B5: 15F11 (antibody, V domains shown)
VH: EIQLQQSGPELVKPGASVRVSCKPSGYAFTSNNIYWVKQSRRKSLEWIGYIDPYIGRIIYNQQFKDKATLTVDKSSSTAYMHLNSLTSEDSAVYYCSRSGERSNFDYWGQGTTLTVSS
VL: EIVLTQSPTAMAASPGEKITITCSASSSISSNYLHWYQQKPGFSPKLLIYRTSNLASGVPARFSGSGSGTSYSLTIGPMEAEDVATYYCQQGGSLPLTFGAGTKVEIK
notes: Mouse variable domains; constant regions differ by assay
- EC50 of shedding inhibition [14]: 0.102 µg/mL
- Max % Inhibition of shedding [14]: 60%
- EC50 of shedding inhibition [15]: 0.0375 µg/mL
- Max % Inhibition of shedding [15]: 64%
- EC50 of shedding inhibition [16]: 0.0752 µg/mL
- Max % Inhibition of shedding [16]: 54%
- EC50 of shedding inhibition [17]: 0.0255 µg/mL
- Max % Inhibition of shedding [17]: 73%
- binding result [1]: binds
- binding result [2]: binds
- binding result [3]: binds
- binding result [4]: binds
- binding result [5]: binds
- % max inhibition of shedding [6]: 59%
- EC50 of shedding inhibition [6]: 0.0736 µg/mL
- % max inhibition of shedding [7]: 86%
- EC50 of shedding inhibition [7]: 0.0485 µg/mL
- % max inhibition of shedding [8]: 74%
- EC50 of shedding inhibition [8]: 0.0165 µg/mL
- Kd [10]: 1.02 nM
- Kd [11]: 3.05 nM
- Kd [12]: 3.28 nM
- Kd [13]: 1.22 nM
